Assay results published in article PMC8352866.

How the values were obtained:
[1] = molecular target: PII-like signaling protein SbtB; assay: cryo-EM structure; SbtA-SbtB complex purified in the presence of AMP; 3.15 Å resolution
[2] = molecular target: Synechocystis sp. PCC 6803 SbtA (Synechocystis sp. PCC 6803); assay: cryo-EM structure; free SbtA, purified; 3.50 Å resolution
[3] = molecular target: Synechocystis sp. PCC 6803 SbtA (Synechocystis sp. PCC 6803); assay: cryo-EM structure; SbtA-SbtB complex purified in the presence of AMP; 3.15 Å resolution

| stoichiometry N [1] | stoichiometry N [2] | stoichiometry N [3] | Substance |
| --- | --- | --- | --- |
| 3 |  |  | PII-like signaling protein SbtB (natural protein) |
|  | 3 | 3 | Synechocystis sp. PCC 6803 SbtA (natural protein) |
